B1: BMP4: growth factor BMP4, neuronal fate suppressor, medium supplement (protein, UniProt P12644 293-408, looked up)
Bone morphogenetic protein 4: SPKHHSQRARKKNKNCRRHSLYVDFSDVGWNDWIVAPPGYQAFYCHGDCPFPLADHLNSTNHAIVQTLVNSVNSSIPKACCVPTELSAISMLYLDEYDKVVLKNYQEMVVEGCGCR
B2: FGF7: fibroblast growth factor FGF7 (protein, UniProt P21781 32-194, looked up)
Fibroblast growth factor 7: CNDMTPEQMATNVNCSSPERHTRSYDYMEGGDIRVRRLFCRTQWYLRIDKRGKVKGTQEMKNNYNIMEIRTVAVGIVAIKGVESEFYLAMNKEGKLYAKKECNEDCNFKELILENHYNTYASAKWTHNGGEMFVALNQKGIPVRGKKTKKEQKTAHFLPMAIT

Tests used:
[1] = system: primary human keratinocytes; assay: Long-term culture of primary keratinocytes (population doubling); settings: niacinamide 3 mM, BMP4 0.5 ng/mL as components of KCM4
Protocol: Keratinocytes were maintained in the indicated medium and passaged every 4-5 days (at ˜80% confluence). For passage, keratinocytes were incubated with a 0.1% Trypsin in Versene solution at 37° C. for 5 minutes. The trypsin was neutralized with 0.5 mg/mL of trypsin inhibitor. The cells were centrifuged at 1200 rpm for 4 min. Cells were counted with a Cellometer (Nexcelom). Cells (25,000-50,000) were plated per well of 6-well plates in the indicated keratinocyte culture media. Media was changed every other day.
Cells were maintained by serial passage at ˜80% confluence until senescence. The total number of cell doublings for each passage was calculated using the following formula: 3.32 log(N/No). Where No refers to the number of cells plated at the beginning of each passage and N is the number of cells recovered at the end of each passage.

human ESC/iPSCs = assay: iKCs derivation from human ESC/iPSCs: critical medium components; assay type: cell-based; settings: Passage 0, Day 14 differentiation culture, anti-K14 immunofluorescence

Molecule	life span and stemness of primary keratinocytes in culture [1]	life span and stemness of primary keratinocytes in culture ([1]; listed as BMP-4)	K14 expression with different fibroblast growth factors (human ESC/iPSCs)
B1	maintained the stemness of primary keratinocyte stem cells in culture	extend the life span of primary keratinocytes in culture	–
B2	–	–	did not promote homogeneous K14 expression
